The text below walks through data of patent US20040121957A1 (CASE WESTERN RESERVE UNIVERSITY, published 2004).

In the test the target is wild type CFTR (cystic fibrosis transmembrane conductance regulator) chloride channel (human, UniProt P13569 1-1480, phosphorylated by PKA in the assay (50 units/ml PKA and 2 mM ATP in the cis solution); sites not listed for the assay). Description: cell-based or functional assay.
Chain of wild type CFTR (cystic fibrosis transmembrane conductance regulator) chloride channel (P13569 whole entry): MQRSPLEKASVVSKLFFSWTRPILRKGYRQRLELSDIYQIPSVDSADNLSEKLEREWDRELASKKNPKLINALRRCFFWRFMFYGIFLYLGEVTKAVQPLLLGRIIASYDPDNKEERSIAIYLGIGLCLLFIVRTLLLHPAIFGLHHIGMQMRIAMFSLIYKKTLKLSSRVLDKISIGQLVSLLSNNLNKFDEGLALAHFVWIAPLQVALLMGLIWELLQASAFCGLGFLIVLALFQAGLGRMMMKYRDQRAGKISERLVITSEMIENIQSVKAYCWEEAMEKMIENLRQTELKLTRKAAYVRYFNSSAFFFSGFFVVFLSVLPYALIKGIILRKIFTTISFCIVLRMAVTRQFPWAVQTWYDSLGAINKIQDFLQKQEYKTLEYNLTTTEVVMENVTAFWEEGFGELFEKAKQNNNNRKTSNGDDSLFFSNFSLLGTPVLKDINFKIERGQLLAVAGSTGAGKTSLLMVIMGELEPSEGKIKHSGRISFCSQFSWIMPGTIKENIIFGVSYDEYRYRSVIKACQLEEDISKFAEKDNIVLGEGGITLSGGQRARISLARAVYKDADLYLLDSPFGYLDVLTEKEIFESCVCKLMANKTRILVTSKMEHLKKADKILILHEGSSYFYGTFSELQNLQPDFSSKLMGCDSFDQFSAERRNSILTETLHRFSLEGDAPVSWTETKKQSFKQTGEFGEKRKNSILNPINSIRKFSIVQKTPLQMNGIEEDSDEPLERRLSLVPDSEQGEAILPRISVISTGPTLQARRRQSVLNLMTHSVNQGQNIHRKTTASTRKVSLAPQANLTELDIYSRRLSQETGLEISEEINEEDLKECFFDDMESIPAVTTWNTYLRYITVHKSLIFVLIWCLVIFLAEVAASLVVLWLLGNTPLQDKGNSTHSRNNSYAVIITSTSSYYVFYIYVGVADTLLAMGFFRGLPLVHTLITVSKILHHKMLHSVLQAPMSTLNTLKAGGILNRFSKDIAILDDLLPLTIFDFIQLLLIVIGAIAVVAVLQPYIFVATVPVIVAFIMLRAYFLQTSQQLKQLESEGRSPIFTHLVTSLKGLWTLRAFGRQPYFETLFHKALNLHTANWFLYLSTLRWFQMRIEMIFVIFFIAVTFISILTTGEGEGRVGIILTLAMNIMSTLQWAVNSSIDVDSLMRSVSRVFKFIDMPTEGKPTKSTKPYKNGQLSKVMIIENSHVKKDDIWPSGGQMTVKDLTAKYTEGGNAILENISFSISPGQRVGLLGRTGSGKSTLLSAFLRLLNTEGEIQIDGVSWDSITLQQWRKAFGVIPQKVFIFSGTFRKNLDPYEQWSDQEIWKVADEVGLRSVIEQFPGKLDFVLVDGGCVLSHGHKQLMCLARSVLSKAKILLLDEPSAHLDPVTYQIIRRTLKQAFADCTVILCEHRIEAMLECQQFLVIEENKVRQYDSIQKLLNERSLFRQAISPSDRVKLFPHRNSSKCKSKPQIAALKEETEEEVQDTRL

Take GLEISEEINEEDLKECFFDDME [synthetic NEG2 peptide (22 amino acid peptide corresponding to CFTR amino acids 817-838)]: the “open probability of single wt-CFTR channel in planar lipid bilayer” value was more than 2 fold.
